“And” between values parts separate entries of the source, which are not always exact repeats. Identical values can stand only once. Like-named read-outs stand apart in the source and are kept apart here.
Legend:
[1] = IV
Description: (§1) This value was assumed to be constant in the estimates of absolute bioavailability.

[2] = Description: as §1
(§2) The portal bioavailability provides an estimate of drug absorption from oral delivery. […] This value is used to estimate bioavailability relative to subcutaneous.

[3] = Estimates of bioavailability (absolute, portal, relative to subcutaneous)
Description: as §1, §2

[4] = Insulin and 4-CNAB stability in simulated gastric fluid (HPLC); conditions: 37° C.
Procedure: The SGF was prepared with and without pepsin, a gastric enzyme. SGF pH 1.2 was prepared as per the USP NF 26 guidelines. 2 g sodium chloride and 3.2 g of pepsin were weighed and added to a suitable container, and deionized water was added to reach one liter in volume. If necessary, the pH was adjusted to 1.2 by addition of concentrated HCl or NaOH. A second SGF solution omitting the pepsin was also prepared.
Four 50 ml samples of SGF (two with pepsin and two without) were placed into a jacketed vessel connected to a circulating water bath set at 37° C. The solutions were stirred with magnetic stir bars for ten minutes to allow the solutions to reach 37° C. and reach thermal equilibrium.
The term “% of theoretical” as used herein, means the percent of the concentration (mg/mL) of withdrawn solution at the time-point the sample was taken as compared to the theoretical concentration (mg/mL) of the measuring component for experiment. The standard of deviation for the HPLC analysis is ±5%.

[5] = system: Glucose; test: Glucose after subcutaneous (SC) administration of insulin; type: in vivo, rat
[6] = dose 8 μg/kg, individual animals
[7] = dose 9 μg/kg, individual animals

Insulin: Recombinant human zinc insulin
AUC0->∞ ([1]; dose 8 μg/kg, X ± SD (n = 3)): 100.7 ± 2.4 ng·min/mL
AUC0->∞/Dose ([1]; dose 8 μg/kg, X ± SD (n = 3)): 0.0126 ± 0.0003 kg·min/mL
Vd ([1]; dose 8 μg/kg, X ± SD (n = 3)): 0.157 ± 0.005 L/kg
AUC0->∞ [1, 6]: 99.35 ng·min/mL and 99.32 ng·min/mL and 103.4 ng·min/mL
C0->∞/Dose [1, 6]: 0.0063 kg/mL and 0.0066 kg/mL and 0.0062 kg/mL
Co [1, 6]: 50.67 ng/mL and 52.64 ng/mL and 49.63 ng/mL
Vd [1, 6]: 0.15788 L/kg and 0.15198 L/kg and 0.16119 L/kg
kel [1, 6]: 0.51 min⁻¹ and 0.53 min⁻¹ and 0.48 min⁻¹
AUC0->∞ ([1]; dose 9 μg/kg, X ± SD (n = 3)): 99.4 ± 23.6 ng·min/mL
AUC0->∞/Dose ([1]; dose 9 μg/kg, X ± SD (n = 3)): 0.0110 ± 0.0026 kg·min/mL
Co ([1]; dose 9 μg/kg, X ± SD (n = 3)): 46.1 ± 9.5 ng/mL
Vd ([1]; dose 9 μg/kg, X ± SD (n = 3)): 0.201 ± 0.043 L/kg
kel ([1]; dose 9 μg/kg, X ± SD (n = 3)): 0.47 ± 0.02 min⁻¹
AUC0->∞ [1, 7]: 99.55 ng·min/mL and 75.67 ng·min/mL and 122.89 ng·min/mL
C0->∞/Dose [1, 7]: 0.0052 kg/mL and 0.0040 kg/mL and 0.0061 kg/mL
Co [1, 7]: 46.79 ng/mL and 36.32 ng/mL and 55.30 ng/mL
Vd [1, 7]: 0.19235 L/kg and 0.2478 L/kg and 0.16275 L/kg
kel [1, 7]: 0.47 min⁻¹ and 0.48 min⁻¹ and 0.45 min⁻¹
AUC0->∞/Dose ([1]; dose […], X ± SD (n = 5)): 0.0062 ± 0.0011 kg·min/mL
Vd ([1]; dose […], X ± SD (n = 5)): 0.219 ± 0.068 L/kg
C0->∞/Dose ([1]; Average over all doses (2.5, 8, 9 μg/kg)): 0.0053 kg/mL
AUC0->T/Dose ([2]; SC (subcutaneous) dosing, average): 0.0052 kg·min/mL
Avg AUC0->T/Dose ([2]; SC, average of studies 1-8): 0.005159 kg·min/mL
AUC0->T/Dose ([2]; SC, study 1, […]): 0.005601 kg·min/mL
AUC0->T/Dose ([2]; SC, study 2, […]): 0.006514 kg·min/mL
AUC0->T/Dose ([2]; SC, study 3, 0.05 mg/kg): 0.005562 kg·min/mL
Insulin ([2]; SC, study 3, 0.05 mg/kg, time 0): 1.51 uU/ml
Insulin ([2]; SC, study 3, 0.05 mg/kg, time 15): 98.85 uU/ml
Insulin ([2]; SC, study 3, 0.05 mg/kg, time 30): 73.59 uU/ml
Insulin ([2]; SC, study 3, 0.05 mg/kg, time 45): 61.37 uU/ml
Insulin ([2]; SC, study 3, 0.05 mg/kg, time 60): 58.20 uU/ml
Insulin ([2]; SC, study 3, 0.05 mg/kg, time 120): 21.34 uU/ml
Insulin ([2]; SC, study 3, 0.05 mg/kg, time 180): 8.30 uU/ml
AUC0->T/Dose ([2]; SC, study 4, 0.05 mg/kg): 0.004929 kg·min/mL
Insulin ([2]; SC, study 4, 0.05 mg/kg, time 0): 0.37 uU/ml
Insulin ([2]; SC, study 4, 0.05 mg/kg, time 15): 103.42 uU/ml
Insulin ([2]; SC, study 4, 0.05 mg/kg, time 30): 81.64 uU/ml
Insulin ([2]; SC, study 4, 0.05 mg/kg, time 45): 68.91 uU/ml
Insulin ([2]; SC, study 4, 0.05 mg/kg, time 60): 58.58 uU/ml
Insulin ([2]; SC, study 4, 0.05 mg/kg, time 90): 32.01 uU/ml
Insulin ([2]; SC, study 4, 0.05 mg/kg, time 120): 21.15 uU/ml
AUC0->T/Dose ([2]; SC, study 5, 0.05 mg/kg): 0.001013 kg·min/mL
Insulin ([2]; SC, study 5, 0.05 mg/kg, time 0): 0 uU/ml
Insulin ([2]; SC, study 5, 0.05 mg/kg, time 15): 34.90 uU/ml
Insulin ([2]; SC, study 5, 0.05 mg/kg, time 30): 9.71 uU/ml
Insulin ([2]; SC, study 5, 0.05 mg/kg, time 45): 16.57 uU/ml
Insulin ([2]; SC, study 5, 0.05 mg/kg, time 60): 10.46 uU/ml
Insulin ([2]; SC, study 5, 0.05 mg/kg, time 90): 2.94 uU/ml
Insulin ([2]; SC, study 5, 0.05 mg/kg, time 120): 5.05 uU/ml
AUC0->T/Dose ([2]; SC, study 6, 0.05 mg/kg): 0.007644 kg·min/mL
Insulin ([2]; SC, study 6, 0.05 mg/kg, time 15): 191.67 uU/ml
Insulin ([2]; SC, study 6, 0.05 mg/kg, time 30): 119.71 uU/ml
Insulin ([2]; SC, study 6, 0.05 mg/kg, time 45): 121.33 uU/ml
Insulin ([2]; SC, study 6, 0.05 mg/kg, time 60): 74.65 uU/ml
Insulin ([2]; SC, study 6, 0.05 mg/kg, time 90): 42.88 uU/ml
Insulin ([2]; SC, study 6, 0.05 mg/kg, time 120): 25.65 uU/ml
AUC0->T/Dose ([2]; SC, study 7, 0.05 mg/kg): 0.005932 kg·min/mL
Tmax ([2]; SC, study 7, 0.05 mg/kg): 30 min
Insulin ([2]; SC, study 7, 0.05 mg/kg, time 0): 5.85 uU/ml
Insulin ([2]; SC, study 7, 0.05 mg/kg, time 15): 90.29 uU/ml
Insulin ([2]; SC, study 7, 0.05 mg/kg, time 30): 125.96 uU/ml
Insulin ([2]; SC, study 7, 0.05 mg/kg, time 45): 67.83 uU/ml
Insulin ([2]; SC, study 7, 0.05 mg/kg, time 60): 78.19 uU/ml
Insulin ([2]; SC, study 7, 0.05 mg/kg, time 90): 45.77 uU/ml
Insulin ([2]; SC, study 7, 0.05 mg/kg, time 120): 18.24 uU/ml
AUC0->T/Dose ([2]; SC, study 8, 0.05 mg/kg): 0.004079 kg·min/mL
Insulin ([2]; SC, study 8, 0.05 mg/kg, time 15): 131.71 uU/ml
Insulin ([2]; SC, study 8, 0.05 mg/kg, time 30): 70.90 uU/ml
Insulin ([2]; SC, study 8, 0.05 mg/kg, time 45): 66.28 uU/ml
Insulin ([2]; SC, study 8, 0.05 mg/kg, time 60): 0.59 uU/ml
Insulin ([2]; SC, study 8, 0.05 mg/kg, time 90): 33.96 uU/ml
Insulin ([2]; SC, study 8, 0.05 mg/kg, time 120): 14.64 uU/ml
FPE (fH) ([2]; individual animals n 1-5): 0.18
AUC-IP ([2]; intraportal administration, Average): 9.65
average insulin AUC0→t/Dose ([2]; subcutaneous dosing): 0.00516 kg·min/mL
AUC-JV ([2]; systemic administration, Average): 15.53
BA ([3]; SC (subcutaneous) dosing): 55.67%
absolute bioavailability ([3]; SC administration, rat model): approximately 56%
maximum absolute bioavailability of insulin ([3]; from oral delivery or any other 100% GI absorption into the portal vein, from intraportal results, rat model): approximately 60%
insulin degraded ([4]; SGF containing pepsin, first sampling point): 97%
insulin remained ([4]; SGF containing pepsin, first sampling point (0 minutes)): 3.0%
Insulin % of theoretical ([4]; SGF no enzymes, with 4-CNAB, 30 minutes): 105.7%
Insulin % of theoretical ([4]; SGF no enzymes, with 4-CNAB, 24 h): 0%
Insulin % of theoretical ([4]; SGF with pepsin, with 4-CNAB, 0 minutes): 3.0%
Insulin % of theoretical ([4]; SGF with pepsin, without 4-CNAB, 0 minutes): 3.0%
Insulin % of theoretical ([4]; SGF without enzymes, without 4-CNAB, 10 minutes): 100.4%
Insulin % of theoretical ([4]; SGF without enzymes, without 4-CNAB, 30 minutes): 100.1%
Insulin % of theoretical ([4]; SGF without enzymes, without 4-CNAB, 1 h): 99.4%
Insulin % of theoretical ([4]; SGF without enzymes, without 4-CNAB, 24 h): 0%
time insulin is stable ([4]; SGF without pepsin): ≥ 2 h
Glucose ([5]; study 3, 0.05 mg/kg, time 0): 83 mg/dL
Glucose ([5]; study 3, 0.05 mg/kg, time 15): 66 mg/dL
Glucose ([5]; study 3, 0.05 mg/kg, time 30): 60 mg/dL
Glucose ([5]; study 3, 0.05 mg/kg, time 45): 61 mg/dL
Glucose ([5]; study 3, 0.05 mg/kg, time 60): 73 mg/dL
Glucose ([5]; study 3, 0.05 mg/kg, time 120): 98 mg/dL
Glucose ([5]; study 3, 0.05 mg/kg, time 180): 105 mg/dL
Glucose ([5]; study 4, 0.05 mg/kg, time 0): 73 mg/dL
Glucose ([5]; study 4, 0.05 mg/kg, time 15): 66 mg/dL
Glucose ([5]; study 4, 0.05 mg/kg, time 30): 59 mg/dL
Glucose ([5]; study 4, 0.05 mg/kg, time 45): 64 mg/dL
Glucose ([5]; study 4, 0.05 mg/kg, time 60): 72 mg/dL
Glucose ([5]; study 4, 0.05 mg/kg, time 90): 88 mg/dL
Glucose ([5]; study 4, 0.05 mg/kg, time 120): 110 mg/dL
Glucose ([5]; study 5, 0.05 mg/kg, time 0): 60 mg/dL
Glucose ([5]; study 5, 0.05 mg/kg, time 15): 42 mg/dL
Glucose ([5]; study 5, 0.05 mg/kg, time 30): 38 mg/dL
Glucose ([5]; study 5, 0.05 mg/kg, time 45): 42 mg/dL
Glucose ([5]; study 5, 0.05 mg/kg, time 60): 48 mg/dL
Glucose ([5]; study 5, 0.05 mg/kg, time 90): 52 mg/dL
Glucose ([5]; study 5, 0.05 mg/kg, time 120): 66 mg/dL
Glucose ([5]; study 6, 0.05 mg/kg, time 0): 68 mg/dL
Glucose ([5]; study 6, 0.05 mg/kg, time 15): 40 mg/dL
Glucose ([5]; study 6, 0.05 mg/kg, time 30): 39 mg/dL
Glucose ([5]; study 6, 0.05 mg/kg, time 45): 36 mg/dL
Glucose ([5]; study 6, 0.05 mg/kg, time 60): 32 mg/dL
Glucose ([5]; study 6, 0.05 mg/kg, time 90): 35 mg/dL
Glucose ([5]; study 6, 0.05 mg/kg, time 120): 39 mg/dL
Glucose ([5]; study 7, 0.05 mg/kg, time 0): 65 mg/dL
Glucose ([5]; study 7, 0.05 mg/kg, time 15): 45 mg/dL
Glucose ([5]; study 7, 0.05 mg/kg, time 30): 39 mg/dL
Glucose ([5]; study 7, 0.05 mg/kg, time 45): 40 mg/dL
Glucose ([5]; study 7, 0.05 mg/kg, time 60): 42 mg/dL
Glucose ([5]; study 7, 0.05 mg/kg, time 90): 42 mg/dL
Glucose ([5]; study 7, 0.05 mg/kg, time 120): 50 mg/dL
Glucose ([5]; study 8, 0.05 mg/kg, time 0): 70 mg/dL
Glucose ([5]; study 8, 0.05 mg/kg, time 15): 59 mg/dL
Glucose ([5]; study 8, 0.05 mg/kg, time 30): 64 mg/dL
Glucose ([5]; study 8, 0.05 mg/kg, time 45): 69 mg/dL
Glucose ([5]; study 8, 0.05 mg/kg, time 60): 73 mg/dL
Glucose ([5]; study 8, 0.05 mg/kg, time 90): 89 mg/dL
Glucose ([5]; study 8, 0.05 mg/kg, time 120): 106 mg/dL
